Where a chain is given by its changes, count along the chain named.
What was measured:
[1] = molecular target: T1, c-Myc conjugated and biotinylated human CD28 stalk region dimeric peptide (wild-type)
T1 chain: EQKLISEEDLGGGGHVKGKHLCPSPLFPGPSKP

[2] = molecular target: T2, L145K mutated biotinylated and Myc tagged human CD28 stalk region dimeric peptide
T2 chain: T1 chain with L26K

[3] = molecular target: quenched fluorogenic peptide of the human CD28 stalk region with L145K
[4] = molecular target: T3, quenched fluorogenic peptide of the human CD28 stalk region (WT)
T3 chain: KGKHLSPSPLFPGPSKPE

B1: Recombinant human MMP-2 (protein)
chain: YNFFPRKPKWDKNQITYRIIGYTPDLDPETVDDAFARAFQVWSDVTPLRFSRIHDGEADIMINFGRWEHGDGYPFDGKDGLLAHAFAPGTGVGGDSHFDDDELWTLGEGQVVRVKYGNADGEYCKFPFLFNGKEYNSCTDTGRSDGFLWCSTTYNFEKDGKYGFCPHEALFTMGGNAEGQPCKFPFRFQGTSYDSCTTEGRTDGYRWCGTTEDYDRDKKYGFCPETAMSTVGGNSEGAPCVFPFTFLGNKYESCTSAGRSDGKMWCATTANYDDDRKWGFCPDQGYSLFLVAAHEFGHAMGLEHSQDPGALMAPIYTYTKNFRLSQDDIKGIQELYGASPDIDLGTGPTPTLGPVTPEICKQDIVFDGIAQIRGEIFFFKDRFIWRTVTPRDKPMGPLLVATFWPELPEKIDAVYEAPQEEKAVFFAGNEYWIYSASTLERGYPKPLTSLGLPPDVQRVDAAFNWSKNKKTYIFAGDKFWRYNEVKKKMDPGFPKLIADAWNAIPDNLDAVVDLQGGGHSYFFKGAYYLKLENQSLKSVKFGSIKSDWLGC
intact peptide by anti-Myc ELISA (25 and 50 ng enzyme, 5 hours) [1]: the WT peptide was cleaved in a dose dependent manner | percent of peptide cleaved (intact peptide by anti-Myc ELISA, 25 and 50 ng enzyme, 5 hours) [2]: the mutated peptide was not substantially cleaved (<5%) by either MMP-2 or MMP-13 | fluorescence from cleavage of quenched fluorogenic peptide (2.5 µM peptide, 30 ng enzyme) [3]: both were completely incapable of cleaving the mutant peptide | fluorescence from cleavage of quenched fluorogenic peptide [4]: MMP-2 cleaves the stalk domain peptide | fluorescence from cleavage of quenched fluorogenic peptide (2.5 µM peptide, 30 ng enzyme) [4]: both enzymes efficiently cleaved the WT peptide | fluorescence from cleavage of quenched fluorogenic peptide, titration of protease [4]: the cleavage of the peptide was dose dependent

B2: Recombinant human ADAM-10 (protein)
chain: TTSAEKNTCQLYIQTDHLFFKYYGTREAVIAQISSHVKAIDTIYQTTDFSGIRNISFMVKRIRINTTADEKDPTNPFRFPNIGVEKFLELNSEQNHDDYCLAYVFTDRDFDDGVLGLAWVGAPSGSSGGICEKSKLYSDGKKKSLNTGIITVQNYGSHVPPKVSHITFAHEVGHNFGSPHDSGTECTPGESKNLGQKENGNYIMYARATSGDKLNNNKFSLCSIRNISQVLEKKRNNCFVESGQPICGNGMVEQGEECDCGYSDQCKDECCFDANQPEGRKCKLKPGKQCSPSQGPCCTAQCAFKSKSEKCRDDSDCAREGICNGFTALCPASDPKPNFTDCNRHTQVCINGQCAGSICEKYGLEECTCASSDGKDDKELCHVCCMKKMDPSTCASTGSVQWSRHFSGRTITLQPGSPCNDFRGYCDVFMRCRLVDADGPLARLKKAIFSPELYENIAE
fluorescence from cleavage of quenched fluorogenic peptide [4]: ADAM-10 and ADAM-17 did not

From US20260209355
